Measured values as given in publication doi:10.1101/2020.01.21.914671.
Values joined by “and” are separate entries in the source; they are usually repeats but may differ in a detail not shown here. Equal values may be shown once.

Columns and labels:
[1] = biological target: human Bak BH3 motif peptide (26-mer) (human); assay: ITC
[2] = biological target: human Bax BH3 motif peptide (28-mer) (human); assay: ITC
[3] = biological target: TANV16L (tanapoxvirus 16L) lacking the C-terminal 23 residues, wild type (tanapoxvirus); assay: AUC

For “TANV16L (tanapoxvirus 16L) lacking the C-terminal 23 residues, wild type (domain or fragment)”, the Kd [1] was 0.038 µM, the Kd [2] was 0.07 µM and the ratio of monomer:dimer [3] was 3.5 :1. For the same substance, the stoichiometry N [3] was 2 and 4.
